Patent US20230085439A1

Columns and labels:
[1] = target: hMPV B2 F (human metapneumovirus)
[2] = target: hMPV B2 F (human metapneumovirus); test: BLI, Fab in solution, His-tagged hMPV B2 F on anti-penta-HIS sensors
[3] = target: hMPV 130-BV (human metapneumovirus); test: BLI, Fab in solution, hMPV 130-BV on anti-penta-HIS sensors
[4] = target: hMPV 130-BV (human metapneumovirus); test: biolayer interferometry, hMPV 130-BV on anti-penta-HIS biosensors; unit inferred

B1: MPV364 Fab (Fab, V domains shown)
VH: QVQLVQSGAEVKKPGASVKVSCKASGYTFTHDSIHWVRQAPGQRLEWMGWINVGNGDTKSSQKFQDRLTITRDTSANTAYMEVRSLKYEDTAMYFCARVDQYCIGGVCYGGKNWFDPWGQGTLVTVSS
VL: SYELNQPPSVSVAPGQTAMITCGGYYVGVKSLHWYQQKAGQAPVLVVHDDSDRPSGIPERFSGSKSGDTATLIISRVEAGDEADYYCQVWDRDSDHPYVFGTGTTVTVL
B1 showed a Kd [1] of 70 nM, a koff [1] of 0.0038 s⁻¹ and a kon [1] of 61000 M⁻¹ s⁻¹. For the same binder, the fold KD against MPV196 and MPV314 [2] was 10 fold.

B2: MPV458 Fab (Fab, V domains shown)
VH: QGKLVESGGGVIQPGRSLRLSCAASGFDFSRYGLHWVRQAPGKGLEWVAVIVYAGSNKYYADSVKGRFTISKDNSKNTMHLQMSDLRTEDTAVYYCARDQAFDLWGQGTMVTVSS
VL: DIQMTQSPASLSASVGDRVTITCQASQGISRSVNWYQQKPGKAPKLLIFDASHLERGVPSRFSGSGYGTDFTFTISSLQPEDIATYYCQQYDNLRISFGQGTRLEIK
With B2 the KD difference in logs against 101F Fab [3] was 3 logs and the Kd [4] was 0.075 nM.

B3: MPV196 Fab (Fab, V domains shown)
VH: QVQLQQWGAGLLKPSETLSLTCAVYGGSFSGYSWTWIRQPPGKGLEWIGEINHSGSTNYNPSLKSRVTISIDTSRNQFSLKLISVTAADTAVYYCARGVRGGYNLWHFDVWGQGTLVTVSS
VL: SYELSQSPSVSVSPGQTARITCSGDKLGNKYASWYQQKPGQSPVLVIYQDDKRPSGIPERFSGSNSGNTATLTIGGTQAMDEADYSCQAWDGRTAVVFGGGTKLTVL
With B3 the Kd [1] was 7.3 nM, the koff [1] was 0.003 s⁻¹ and the kon [1] was 410000 M⁻¹ s⁻¹.

B4: MPV314 Fab (Fab, V domains shown)
VH: QVQLVQSGGGVVQPGRSLRLSCAASGFSFSDYGMDWVRQAPGKGLEWVAVISYDGSNQYYADSVKGRFTVSRDNSKNTVYLQMNSLRAEDTAVYFCAKDESRRYYYSSGIHSHWGQGTLVTVSS
VL: DIVMTQSPATLSVSPGERATLSCRASQSVSRNLAWYQQKPGQAPRLLIFGASTRATGIPARFSGSASGTEFTLTISSLQSEDFAVYYCHQYNYWPPGTFGQGTRLEIK
For B4, the Kd [1] was 4.4 nM, the koff [1] was 0.0027 s⁻¹ and the kon [1] was 630000 M⁻¹ s⁻¹.
